We go through two molecules from publication PMC12005765 (Advanced Science, 2025).

Test [1] deals with CD3 epsilon-delta heterodimeric protein (Acro Biosystems) (Homo sapiens (assumed)) (UniProt P07766). Put plainly: SPR; IgGs or Fc fusions captured on antihuman Fc polyclonal antibodies amine-coupled to a CM5 chip; spike trimer or CD3 epsilon-delta heterodimer injected; blank flow cell subtracted; 1:1 Langmuir model, simultaneous global fit of ka and kd, KD = kd/ka; BIAcore 2000 (methods) or BIAcore T100 (footnote of Table S3). (Surface plasmon resonance follows binding to a sensor surface in real time, without labels.)

Test [2] concerns the target T1, CD3 epsilon-delta heterodimeric protein (Acro Biosystems) (Homo sapiens (assumed), UniProt P07766;P04234).
T1 construct: also called recombinant CD3delta epsilon; CD3delta-epsilon
Described as above. To be noted: both partners purified.

T1 sequence (P07766 23-126, stated change not applied, chain 1 of 2): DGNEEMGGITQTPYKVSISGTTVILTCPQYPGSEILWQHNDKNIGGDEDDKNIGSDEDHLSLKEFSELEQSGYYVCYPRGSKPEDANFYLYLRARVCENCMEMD
T1 sequence (P04234 22-171, stated change not applied, chain 2 of 2): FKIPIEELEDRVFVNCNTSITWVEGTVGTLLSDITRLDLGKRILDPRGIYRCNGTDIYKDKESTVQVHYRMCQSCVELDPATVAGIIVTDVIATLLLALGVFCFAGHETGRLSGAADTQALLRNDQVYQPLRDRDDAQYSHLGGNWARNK

As to “SC02, anti-S/CD3 bispecific CrossMab from CV3-25/UCHT1 (bispecific antibody)”, in test [1], the Kd (in general, the concentration at which binding is half-saturated) stood at 0.29 nM; the koff (usually a measure of how fast the partners let go of each other) is 0.000285 s⁻¹; the kon (in general, the second-order rate constant of association) is 974000 M⁻¹ s⁻¹.

B1: humanized UCHT1 (anti-CD3) (antibody, V domains shown)
VH: EVQLVESGGGLVQPGGSLRLSCAASGYSFTGYTMNWVRQAPGKGLEWVALINPYKGVSTYNQKFKDRFTISVDKSKNTAYLQMNSLRAEDTAVYYCARSGYYGDSDWYFDVWGQGTLVTVSS
VL: DIQMTQSPSSLSASVGDRVTITCRASQDIRNYLNWYQQKPGKAPKLLIYYTSRLESGVPSRFSGSGSGTDYTLTISSLQPEDFATYYCQQGNTLPWTFGQGTKVEIK
notes: also called anti-CD3 antibody
As for B1, in test [2], binding was characterised by a dissociation constant (Kd) of 0.16 nM.
